Measured values as given in patent US20250340655A1, “EPHA2-TARGETING ANTIBODIES AND THEIR APPLICATIONS IN CANCER TREATMENT” (TAIPEI MEDICAL UNIVERSITY, priority 2022, published 2025).

Columns and labels:
BxPc-3 cells = experiment: Antibody internalization (endocytosis) assay; format: cell-based, human; details: BxPc-3, 1 h, 37° C. vs 4° C. (FIG. 6B)
Protocol: BxPc-3 cells were seeded on cover glasses placed in the wells of a 6-well culture plate. The BxPc-3 seeded glass slides were incubated with ephrin A1-Fc (Sino Biological) or IgG hSD5 for 1 h at 37° C. or 4° C. After washing with PBS, the cells were fixed with 100% ice methanol for 10 min. Next, the cells were stained with an FITC-conjugated anti-human Fc antibody and were subsequently mounted with ProLong Diamond Antifade Mountant comprising 4′,6-diamidino-2-phenylindole for nuclear counterstaining (Invitrogen). The cells were imaged using a confocal microscope (Leica Microsystems).

Mia PaCa-2 tumor = Mia PaCa-2 tumor xenograft model (IgG hSD5, gemcitabine); format: in vivo, mouse
Protocol: The freshly prepared BxPc-3 and Mia PaCa-2 cancer cells were harvested during the log growth phase and resuspended in PBS for tumor implantation. Each NOD/SCID mouse was subcutaneously inoculated with cancer cells (5×10^6 to BxPc-3 and 1×10^7 to Mia PaCa-2) for tumor formation. The tumor size was measured twice weekly, and the volume was calculated as follows: V=0.5lw^2, where l=the length and w=the width. When the tumor size was approximately 100 mm3, animals were divided into groups that received (a) vehicle alone through intravenous injection (i.v.) once weekly (qwk), (b) control human IgG1 at 20 mg/kg through i.v. qwk, (c) and (d) hSD5 IgG1 at 2 or 20 mg/kg through i.v. qwk, (e) and (f) gemcitabine at 20 or 100 mg/kg through i.v. twice weekly (biw), or (g) hSD5 IgG1 at 2 mg/kg through i.v. qwk combined with gemcitabine at 20 mg/kg through i.v. biw. At the end of the experiment, the antitumor effects were quantified by dividing the tumor volumes in the treatment groups by those in the control groups and multiplying them by 100 to represent tumor growth inhibition (TGI; %). The mice were also examined frequently for overt signs of adverse drug-related side effects.
The pancreatic tissue microarray slide (US Biomax, PA483e) was used to detect and analyze the EphA2 expression of clinical samples. In the xenograft animal model, the excised BxPc-3 and Mia PaCa-2 tumors were fixed in formalin, embedded in paraffin, and sliced for immunohistochemical staining (IHC). Commercial antibodies (Cell signaling, Dako; Agilent Technologies; and Abcam) were used for staining the EphA2 molecule, cell proliferation marker Ki-67, and apoptosis marker cleaved caspase 3. The effects of staining were observed using a Zeiss Axioskop-2 microscope (Carl Zeiss).
Mia PaCa-2 xenograft mice was also used to determine the inhibitory effect of IgG hSD5 on in vivo tumor growth. Administration of IgG hSD5 (20 mg/kg, iv, qwk, indicated as blue filled inverted triangles) and Gemcitabine (100 mg/kg, iv, biw, indicated as orange filled squares) were used to test the inhibition effect on BxPc-3 tumor growth, n=6, TGI denotes Tumor growth inhibition. (FIG. 8A) Administration of IgG hSD5 (2 mg/kg, iv, qwk, indicated by solid black triangles), Gemcitabine (20 mg/kg, iv, biw, indicated by black open squares), and the experimental group that combined IgG and Gemcitabine treatment simultaneously (indicated by solid red diamonds) were used to teat the growth inhibitory effect of BxPc-3 on the tumor. (FIG. 8B) During treatments, the weight changes of each mouse group were tracked. (FIG. 8C) The expression levels of EphA2, cell proliferation marker Ki67, and apoptosis-related marker cleaved caspase3 in the excised tumor groups were analyzed by IHC staining. (FIG. 8D)

[1] = tested on: hTERT HPNE, AsPC-1, BxPc-3, and Mia PaCa-2; experiment: Growth inhibitory response of pancreatic cell lines to serially diluted hSD5-ADC; format: cell-based, human; details: serial dilution (FIGS. 11A-11D)
[2] = molecular target: T1, endogenous EphA2 molecules on three strains of gastric cancer cells (Homo sapiens, UniProt P29317); experiment: Flow cytometry binding on gastric cancer cells; details: flow cytometry (FIG. 15A)
T1 construct: identify endogenous EphA2 molecules on three strains of gastric cancer cells; endogenous in cells
T1 sequence (P29317 24-976): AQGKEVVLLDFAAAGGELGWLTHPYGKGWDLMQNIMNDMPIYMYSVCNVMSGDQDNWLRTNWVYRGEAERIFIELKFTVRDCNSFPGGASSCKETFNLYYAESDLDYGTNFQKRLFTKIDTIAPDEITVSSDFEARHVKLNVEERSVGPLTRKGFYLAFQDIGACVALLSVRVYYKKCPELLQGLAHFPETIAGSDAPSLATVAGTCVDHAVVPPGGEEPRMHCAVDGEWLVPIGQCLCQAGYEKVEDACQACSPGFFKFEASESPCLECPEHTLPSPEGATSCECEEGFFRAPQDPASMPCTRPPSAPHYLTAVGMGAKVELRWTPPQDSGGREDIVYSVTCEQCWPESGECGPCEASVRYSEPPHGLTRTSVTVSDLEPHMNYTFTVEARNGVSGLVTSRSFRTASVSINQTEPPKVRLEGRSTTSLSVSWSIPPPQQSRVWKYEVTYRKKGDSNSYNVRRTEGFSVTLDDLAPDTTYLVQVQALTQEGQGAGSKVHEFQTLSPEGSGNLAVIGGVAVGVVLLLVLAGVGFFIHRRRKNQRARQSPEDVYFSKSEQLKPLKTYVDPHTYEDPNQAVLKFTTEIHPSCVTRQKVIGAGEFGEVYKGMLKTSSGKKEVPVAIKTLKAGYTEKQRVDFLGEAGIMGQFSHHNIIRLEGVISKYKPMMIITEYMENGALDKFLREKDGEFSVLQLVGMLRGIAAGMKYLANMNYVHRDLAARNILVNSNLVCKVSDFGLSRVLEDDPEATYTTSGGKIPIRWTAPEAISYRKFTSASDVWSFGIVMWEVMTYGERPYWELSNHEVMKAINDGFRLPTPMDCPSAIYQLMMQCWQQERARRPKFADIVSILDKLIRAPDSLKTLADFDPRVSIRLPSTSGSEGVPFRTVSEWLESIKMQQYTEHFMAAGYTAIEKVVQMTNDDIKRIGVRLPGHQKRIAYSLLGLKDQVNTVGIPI
Description: Flow cytometry was used to analyze the response of hSD5 IgG in identifying endogenous EphA2 molecules on the three strains of gastric cancer cell lines. PC represents the use of commercial Ab to determine the expression of EphA2 on cancer cells; NC represents the control group with irreverent of the isotype IgG1 antibody. The hSD5 was used to identify endogenous EphA2 molecules on three strains of gastric cancer cells by flow cytometry analysis. […] (FIG. 15A)

[3] = molecular target: T2, endogenous EphA2 molecules on cholagiocarcinoma cell lines (HuCCT1, ssp-25, RBE, TFK) and bladder cancer cell line (PC-3) (Homo sapiens, UniProt P29317); experiment: Flow cytometry binding on cholagiocarcinoma and bladder cancer cell lines; details: cholagiocarcinoma and bladder cancer cell lines (FIG. 17B)
T2 construct: endogenous in cells; host or cells: HuCCT1, ssp-25, RBE, TFK, PC-3
T2 sequence (P29317 24-976): as above
Description: Flow cytometry was used to analyze the response of hSD5 IgG with different concentrations in identifying endogenous EphA2 molecules on the four strains of cholagiocarcinoma cell lines and bladder cancer cell line. PC represents the use of commercial Ab to determine the expression of EphA2 on cancer cells.

[4] = molecular target: T3, endogenous EphA2 molecule on colon cancer cells (HCT116, SW480 and SW460) (Homo sapiens, UniProt P29317); experiment: Flow cytometry binding on colon cancer cells; details: flow cytometry (FIG. 18B)
T3 construct: endogenous in cells; host or cells: HCT116, SW480, SW460
T3 sequence (P29317 24-976): as above

B1: IgG hSD5: complete humanized anti-EphA2 IgG (IgG1) of hSD5 (antibody, V domains shown)
VH: QVQLVESGGGLVQPGGSLRLSCAASGFTFSDYGMGWVRQAPGKGLEWVAGISAAGSFTPYGAAVKGRFTISRDNSKNTVYLQMNSLRAEDTAVYYCARIPSGYRAGEIYTWGQGTLVTVSS
VL: LTQPPSVSVSPGQTVRITCSGSSGSYGWYQQKSPGQAPVTLIYDNDKRPSGIPERFSGSSSGSTSTLTISGVQAEDEADYYCGSADSSTYVGMFGGGTKLTVL
- endocytosis after targeting EphA2 (BxPc-3 cells): endocytosed from the cell membrane into the cytoplasm
- expression levels of EphA2 and Ki-67 in the tissue (Mia PaCa-2 tumor; IHC of Mia PaCa-2 tumor tissue sections (FIG. 8D)): significantly decreased
- TGI (tumor growth inhibition) (Mia PaCa-2 tumor; Mia PaCa-2 xenograft, 20 mg/kg): 63.2%
- growth inhibitory response of pancreatic cell lines [1]: does not provide ideal inhibition effect
- binding response to EphA2 molecules on gastric cancer cells [2]: significant binding response
- binding response to EphA2 molecules on cancer cells [3]: significant binding response
- binding response to EphA2 molecules on cancer cells [4]: significant binding response
